Data set [1] has as its target T1, vesicular stomatitis virus nucleoprotein lacking its 21 N-terminal residues (N[change]), MBP tag removed (vesicular stomatitis virus, UniProt P03521 22-422).
The data set “SEC” concerns the molecule itself. In words: SEC. A general note: In gel filtration, larger molecules generally elute earlier.
Data set [2] deals with P60: the first 60 amino acids of VSV phosphoprotein P, a two-amino acid linker and a C-terminal His6-tag (vesicular stomatitis virus, UniProt P03520 1-60). The data set can be described thus: NMR titration. The conditions noted are these: both partners purified.
Data set [3] has as its target T1, vesicular stomatitis virus …. The data set can be described thus: SEC-MALS. The conditions noted are these: both partners purified.

The values below come from article PMC3178552 (PLoS Pathogens, 2011).

Read-outs that look alike come from different tables or passages of the source.

As a reminder, the stoichiometry N is a count of units in the complex or per binding partner. VREYLKSYSRLDQAVGEIDEIEAQRAEKSNYELF [shorter peptide encompassing residues 7 to 40 of P]: the “stoichiometry N” value in data set [1] is 1.

B1: N[change] in fusion with an N-terminal maltose binding protein tag (MBP-N[change]) (domain or fragment)
chain: EDPVEYPADYFRKSKEIPLYINTTKSLSDLRGYVYQGLKSGNVSIIHVNSYLYGALKDIRGKLDKDWSSFGINIGKAGDTIGIFDLVSLKALDGVLPDGVSDASRTSADDKWLPLYLLGLYRVGRTQMPEYRKKLMDGLTNQCKMINEQFEPLVPEGRDIFDVWGNDSNYTKIVAAVDMFFHMFKKHECASFRYGTIVSRFKDCAALATFGHLCKITGMSTEDVTTWILNREVADEMVQMMLPGQEIDKADSYMPYLIDFGLSSKSPYSSVKNPAFHFWGQLTALLLRSTRARNARQPDDIEYTSLTTAGLLYAYAVGSSADLAQQFCVGDNKYTPDDSTGGLTTNAPPQGRDVVEWLGWFEDQNRKPTPDMMQYAKRAVMSLQGLREKTIGKYAKSEFDK
For B1, the binding result (in “SEC”; in data set [2]) was “binds” each time.

B2: full-length VSV phosphoprotein P dimer (natural protein)
chain: MDNLTKVREYLKSYSRLDQAVGEIDEIEAQRAEKSNYELFQEDGVEEHTKPSYFQAADDSDTESEPEIEDNQGLYAQDPEAEQVEGFIQGPLDDYADEEVDVVFTSDWKPPELESDEHGKTLRLTSPEGLSGEQKSQWLSTIKAVVQSAKYWNLAECTFEASGEGVIMKERQITPDVYKVTPVMNTHPSQSEAVSDVWSLSKTSMTFQPKKASLQPLTISLDELFSSRGEFISVGGDGRMSHKEAILLGLRYKKLYNQARVKYSL
For the molecule B2, the “stoichiometry N” value in data set [3] was found to be 2 P molecules per NΔ21.
